# B1: FCHO1 (parent)
# chain: FTSSPSPFSSSSPENVEDSGLDSP
# Variants of: B1
# Assay: protein stability index of a GFP-peptide fusion (GPS, HEK-293T) (PSI 1-6); higher = more stable
# Details: c terminus: a fixed tail appended
# 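Also: lentivirally expressed fusions sorted by FACS into six bins by GFP to DsRed ratio, PSI derived from sequencing read proportions per bin multiplied by bin number.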
row,Variant,protein stability index
1,FTSSPSPFSSSSPEVVEDSGLDSP [N15V],2.46
2,FTSSPSPFSSSSPETVEDSGLDSP [N15T],2.04
3,FTSSPSPFSSSSPEQVEDSGLDSP [N15Q],1.81
4,FTSSPSPFSSSSPEYVEDSGLDSP [N15Y],1.6
5,FTSSPSPFSSSSPEEVEDSGLDSP [N15E],1.82
6,FTSSPSPFSSSSPEMVEDSGLDSP [N15M],2.57
7,FTSSPSPFSSSSPEIVEDSGLDSP [N15I],2.05
8,FTSSPSPFSSSSPEAVEDSGLDSP [N15A],2.13
9,FTSSPSPFSSSSPEHVEDSGLDSP [N15H],1.66
10,FTSSPSPFSSSSPEKVEDSGLDSP [N15K],1.43
11,FTSSPSPFSSSSPEDVEDSGLDSP [N15D],2.25
12,FTSSPSPFSSSSPEPVEDSGLDSP [N15P],2.95
13,FTSSPSPFSSSSPECVEDSGLDSP [N15C],2.24
14,FTSSPSPFSSSSPEWVEDSGLDSP [N15W],2.39
15,FTSSPSPFSSSSPELVEDSGLDSP [N15L],2.01
16,FTSSPSPFSSSSPESVEDSGLDSP [N15S],2.33
17,FTSSPSPFSSSSPEGVEDSGLDSP [N15G],1.64
18,FTSSPSPFSSSSPERVEDSGLDSP [N15R],1.71
19,FTSSPSPFSSSSPEFVEDSGLDSP [N15F],1.73
20,FTSSPSPFSSSSPMNVEDSGLDSP [E14M],2.05
21,FTSSPSPFSSSSPHNVEDSGLDSP [E14H],1.95
22,FTSSPSPFSSSSPTNVEDSGLDSP [E14T],1.84
23,FTSSPSPFSSSSPCNVEDSGLDSP [E14C],1.69
24,FTSSPSPFSSSSPVNVEDSGLDSP [E14V],2.15

row,Variant,protein stability index
1,FTSSPSPFSSSSPDNVEDSGLDSP [E14D],2.4
2,FTSSPSPFSSSSPNNVEDSGLDSP [E14N],2.14
3,FTSSPSPFSSSSPGNVEDSGLDSP [E14G],1.92
4,FTSSPSPFSSSSPSNVEDSGLDSP [E14S],2.17
5,FTSSPSPFSSSSPQNVEDSGLDSP [E14Q],2.31
6,FTSSPSPFSSSSPANVEDSGLDSP [E14A],1.96
7,FTSSPSPFSSSSPFNVEDSGLDSP [E14F],1.64
8,FTSSPSPFSSSSPWNVEDSGLDSP [E14W],2.78
9,FTSSPSPFSSSSPLNVEDSGLDSP [E14L],2.22
10,FTSSPSPFSSSSPYNVEDSGLDSP [E14Y],1.72
11,FTSSPSPFSSSSPINVEDSGLDSP [E14I],1.9
12,FTSSPSPFSSSSPPNVEDSGLDSP [E14P],1.94
13,FTSSPSPFSSSSPRNVEDSGLDSP [E14R],1.61
14,FTSSPSPFSSSSPKNVEDSGLDSP [E14K],2.1
15,FTSSPSPFSSSSPENGEDSGLDSP [V16G],2.75
16,FTSSPSPFSSSSPENEEDSGLDSP [V16E],1.81
17,FTSSPSPFSSSSPENQEDSGLDSP [V16Q],1.91
18,FTSSPSPFSSSSPENIEDSGLDSP [V16I],2.25
19,FTSSPSPFSSSSPENPEDSGLDSP [V16P],1.6
20,FTSSPSPFSSSSPENCEDSGLDSP [V16C],2.44
21,FTSSPSPFSSSSPENSEDSGLDSP [V16S],2.15
22,FTSSPSPFSSSSPENKEDSGLDSP [V16K],1.9
23,FTSSPSPFSSSSPENYEDSGLDSP [V16Y],2.03
24,FTSSPSPFSSSSPENMEDSGLDSP [V16M],1.68

row,Variant,protein stability index
1,FTSSPSPFSSSSPENDEDSGLDSP [V16D],2.39
2,FTSSPSPFSSSSPENTEDSGLDSP [V16T],2.52
3,FTSSPSPFSSSSPENREDSGLDSP [V16R],2.08
4,FTSSPSPFSSSSPENWEDSGLDSP [V16W],2.16
5,FTSSPSPFSSSSPENHEDSGLDSP [V16H],2.27
6,FTSSPSPFSSSSPENNEDSGLDSP [V16N],1.86
7,FTSSPSPFSSSSPENLEDSGLDSP [V16L],1.7
8,FTSSPSPFSSSSPENAEDSGLDSP [V16A],2.47
9,FTSSPSPFSSSSPENFEDSGLDSP [V16F],1.75
10,FTSSPSPFSSSSPENVEDSGLISP [D22I],2.11
11,FTSSPSPFSSSSPENVEDSGLGSP [D22G],1.86
12,FTSSPSPFSSSSPENVEDSGLCSP [D22C],2.47
13,FTSSPSPFSSSSPENVEDSGLFSP [D22F],1.31
14,FTSSPSPFSSSSPENVEDSGLASP [D22A],2
15,FTSSPSPFSSSSPENVEDSGLHSP [D22H],2.29
16,FTSSPSPFSSSSPENVEDSGLLSP [D22L],2.14
17,FTSSPSPFSSSSPENVEDSGLESP [D22E],2.6
18,FTSSPSPFSSSSPENVEDSGLKSP [D22K],1.74
19,FTSSPSPFSSSSPENVEDSGKDSP [L21K],2.02
20,FTSSPSPFSSSSPENVEDSGTDSP [L21T],2.52
21,FTSSPSPFSSSSPENVEDSGADSP [L21A],1.49
22,FTSSPSPFSSSSPENVEDSGMDSP [L21M],2.84
23,FTSSPSPFSSSSPENVEDSGVDSP [L21V],2.01
24,FTSSPSPFSSSSPENVEDSGDDSP [L21D],2.06

row,Variant,protein stability index
1,FTSSPSPFSSSSPENVEDSGFDSP [L21F],2.07
2,FTSSPSPFSSSSPENVEDSGSDSP [L21S],1.81
3,FTSSPSPFSSSSPENVEDSGYDSP [L21Y],2.19
4,FTSSPSPFSSSSPENVEDSGNDSP [L21N],2.28
5,FTSSPSPFSSSSPENVEDSGCDSP [L21C],2.23
6,FTSSPSPFSSSSPENVEDSGGDSP [L21G],2.12
7,FTSSPSPFSSSSPENVEDSGPDSP [L21P],2.14
8,FTSSPSPFSSSSPENVEDSGQDSP [L21Q],2.03
9,FTSSPSPFSSSSPENVEDSGHDSP [L21H],2.27
10,FTSSPSPFSSSSPENVEDSGIDSP [L21I],2.87
11,FTSSPSPFSSSSPENVEDSGWDSP [L21W],1.7
12,FTSSPSPFSSSSPENVEDSGRDSP [L21R],2.21
13,FTSSPSPFSSSSPENVEDSGEDSP [L21E],1.95
14,FTSSPSPFSSSSPENVEDSFLDSP [G20F],2.32
15,FTSSPSPFSSSSPENVEDSDLDSP [G20D],1.88
16,FTSSPSPFSSSSPENVEDSLLDSP [G20L],2.07
17,FTSSPSPFSSSSPENVEDSHLDSP [G20H],2.43
18,FTSSPSPFSSSSPENVEDSYLDSP [G20Y],2.33
19,FTSSPSPFSSSSPENVEDSKLDSP [G20K],2.87
20,FTSSPSPFSSSSPENVEDSELDSP [G20E],2.04
21,FTSSPSPFSSSSPENVEDSALDSP [G20A],1.88
22,FTSSPSPFSSSSPENVEDSPLDSP [G20P],1.86

# Reference: the supplement of paper PMC10567573
